According to PMC5707411:

Molecular target: full-length RSV F A2 DS-Cav1 K201N (A-chimera construct) (respiratory syncytial virus subtype A, strain A2)

B1: 5C4 IgG (antibody, V domains shown)
VH: EVQLQQSGAELVKPGASVKLSCTASGFNIKDTFFHWVKQRPEQGLEWIGRIDPADGHTKYDPKFQGKATITADTSSNTAFLQLSSLTSVDTAVYYCATTITAVVPTPYNAMDYWGQGTSVTVSS
VL: DIVLTQSPASLAVSLGQRTTISCRASESVDSFDNSFIHWYQQKPGQPPKLLIFLASSLESGVPARFSGSGSRTDFTLTIDPVEADDAATYYCQQSNEDPFTFGSGTKLEIK
  EC50 of 5C4 neutralisation of mKate-RSV A2 K201N-mutated virus on HEp-2 cells (viral F without DS-Cav1; antibody format not given): 0.41 µg/mL
